The results in this text go back to article PMC6762143.

For experiment [1], the target named is FRET-PGK1 (PGK1 labeled with mEGFP at the N-terminus and mCherry at the C-terminus) (yeast) (UniProt P00560).
Experiment [2] concerns the target mEGFP (free), expressed in U-2 OS cells. The experiment in a line: FRET or BRET; in living U-2 OS cells co-transfected with both proteins; only cells with about 1:1 expression; epifluorescence microscope, infrared laser temperature ramp 19-46°C; average of 15-30 cells. Background: In BRET a luciferase serves as donor, and the signal depends on an acceptor being close.

Experiment [3] addresses ePGK2, expressed in U-2 OS cells (yeast) (UniProt P00560). Described as above.
For experiment [4], the target named is ePGK3, expressed in U-2 OS cells (yeast) (UniProt P00560). The experiment is described as above.

As to “Hsp70 (as used in the stopped flow PGK refolding assay) (from UniProt P0DMV8 1-641) (natural protein)”, in experiment [1], the folding efficiency of GuHCl-denatured efPGK1 in stopped flow refolding (intramolecular FRET) with 100 μM Hsp70 and 22.5 μM Hsp40, 2 mM ATP; 47% without Hsp70 was 57%.
As for “mCherry (free), expressed in U-2 OS cells”, in experiment [2], the E FRET change amounted to 2%.
Regarding “mHsp70 (Hsp70 labeled by mCherry at the C-terminus), expressed in U-2 OS cells (from UniProt P0DMV8 1-641) (natural protein)”, in experiment [3], the T0 (binding temperature midpoint) stood at 39.1 °C and the overall E FRET change worked out at 8%. Also, in experiment [4], the T0 (binding temperature midpoint) came out at 37.1 °C and the overall E FRET change was 8%.
